The values below come from patent publication US20250011363A1, “OPTIMIZED SHORTENED PEPTIDE THAT BINDS TO ACETYLCHOLINE RECEPTOR, AND USE THEREOF” (SKINMED CO., LTD., priority 2021, published 2025).

This test has as its target acetylcholine receptor. The test can be described thus: SPR, receptor immobilized, peptide 10 uM. (SPR reads the build-up and loss of mass on a sensor chip optically.)

As to KKQVQK [6mer-1-199], the Binding affinity (RU) came out at 151 RU.
In the case of RSFLRR [6mer-2-158], the Binding affinity stood at 145 RU.
As to KVIRKK [6mer-2-172], the Binding affinity was found to be 128 RU.
As for KWFTRR [6mer-2-165], the Binding affinity came out at 139 RU.
RKWQRR [6mer-1-194] displayed a Binding affinity (RU) of 144 RU.
As for RQQTRR [6mer-2-171], the Binding affinity was found to be 139 RU.
On the same count and under the same terms, to RQFYKR [6mer-2-152] belongs 139 RU.
Same read-out and setting: to KLFQKR [6mer-2-167] belongs 145 RU; to RQYQKK [6mer-2-170], 128 RU.
On the same count and under the same terms, the figure for KRQRRK [6mer-2-164] is 135 RU.
Regarding KSIRRK [6mer-2-144], the Binding affinity came out at 133 RU.
On the same count and under the same terms, to KRQSRR [6mer-2-169] belongs 123 RU.
In the case of RRSIRR [6mer-1-197], the Binding affinity (RU) stood at 139 RU.
The same measure, in the same setting: the figure for KRVQLK [6mer-1-193] is 149 RU.
RWVLRR [6mer-2-142] came in with a Binding affinity of 121 RU.
On to KRGISR [6mer-1-195], for which the Binding affinity (RU) was determined as 122 RU.
Take KLFRKK [6mer-2-139]: the Binding affinity was found to be 149 RU.
On the same count and under the same terms, to KQLLKR [6mer-2-146] belongs 135 RU; to KGQYKK [6mer-2-148], 145 RU.
Same read-out and setting: the figure for KVISKR [6mer-2-162] is 136 RU.
Still for that read-out and setting: to KVFCKK [6mer-2-137] belongs 135 RU.
Take RKWRRK [6mer-1-196]: the Binding affinity (RU) was determined as 142 RU.
Same read-out and setting: the figure for RKLYYR [6mer-1-190] is 153 RU.
For the molecule RQYYKK [6mer-2-145], the Binding affinity stood at 128 RU.
Molecule KGRLKK [6mer-2-140] had a Binding affinity of 142 RU.
For the molecule KRLFCR [6mer-1-198], the Binding affinity (RU) is 148 RU.
Take KKQILK [6mer-1-191]: the Binding affinity (RU) was 139 RU.
Molecule KLLRKR [6mer-2-174] displayed a Binding affinity of 142 RU.
Same read-out and setting: to KWFYRR [6mer-2-163] belongs 149 RU.
In the case of RQQCKK [6mer-2-173], the Binding affinity came to 127 RU.
On to RSYRKK [6mer-2-157], for which the Binding affinity is 153 RU.
KRVTKR [6mer-2-154] gave a Binding affinity of 148 RU.
Molecule RVYSRR [6mer-2-153] returned a Binding affinity of 124 RU.
Same read-out and setting: the figure for KGQQRK [6mer-2-149] is 127 RU.
Still for that read-out and setting: the figure for KWRRKK [6mer-2-161] is 154 RU.
Same read-out and setting: the figure for KQLRKR [6mer-2-151] is 142 RU.
RKLYQR [6mer-1-200] had a Binding affinity (RU) of 142 RU.
On to RRVCRR [6mer-2-143], for which the Binding affinity came to 128 RU.
As to KVYLRK [6mer-2-175], the Binding affinity is 137 RU.
The molecule KKSYSK [6mer-1-189] registered a Binding affinity (RU) of 137 RU.
In turn, KRILKR [6mer-2-150] showed a Binding affinity of 136 RU.
In the case of KRQYQR [6mer-1-192], the Binding affinity (RU) turned out to be 127 RU.
Regarding KGVYKK [6mer-2-155], the Binding affinity was found to be 139 RU.
Still for that read-out and setting: to RQYYRK [6mer-2-159] belongs 127 RU.
Same read-out and setting: the figure for RVFLKR [6mer-2-168] is 135 RU; for KGLQRR [6mer-2-156] it is 127 RU.
Same read-out and setting: the figure for RVRRKK [6mer-2-160] is 121 RU; for KWYQKK [6mer-2-141] it is 154 RU; for RWLRKR [6mer-2-166] it is 125 RU.
For the molecule RRRIQR [6mer-1-201], the Binding affinity (RU) came to 151 RU.
Consider KQRRRK [6mer-2-138], for which the Binding affinity stood at 153 RU.
As to RQYTKR [6mer-2-147], the Binding affinity stood at 133 RU.
